Reference: publication PMC4930401

Target: BF520.1 (human (infant BF520))
Assay: BLI

Q: “BF520.W14.E3 native-like SOSIP trimer (complex)” was tested. Which Kd did it give?
A: 8 nM
